Target: T1, FAP100-HA (FAP100/Mia1p with a triple HA tag, in the rescued strain mia1R) (C. reinhardtii, UniProt A8I4E9 1-576)
T1 sequence (looked up): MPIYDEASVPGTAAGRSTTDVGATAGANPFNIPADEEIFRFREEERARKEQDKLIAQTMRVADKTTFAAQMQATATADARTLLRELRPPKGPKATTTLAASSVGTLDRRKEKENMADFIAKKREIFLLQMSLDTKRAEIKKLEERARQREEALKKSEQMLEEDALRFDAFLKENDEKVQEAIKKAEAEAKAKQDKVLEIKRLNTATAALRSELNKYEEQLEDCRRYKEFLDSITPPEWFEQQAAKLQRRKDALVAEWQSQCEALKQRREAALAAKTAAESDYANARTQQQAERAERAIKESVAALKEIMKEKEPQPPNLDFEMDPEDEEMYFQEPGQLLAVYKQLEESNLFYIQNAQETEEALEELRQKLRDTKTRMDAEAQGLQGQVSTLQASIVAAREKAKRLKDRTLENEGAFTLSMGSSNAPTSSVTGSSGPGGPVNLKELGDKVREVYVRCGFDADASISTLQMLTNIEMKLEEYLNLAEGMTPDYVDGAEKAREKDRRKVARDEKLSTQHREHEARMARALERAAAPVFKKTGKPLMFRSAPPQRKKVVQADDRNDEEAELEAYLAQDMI
Test: affinity purification with mass spectrometry

stoichiometry N: 1.83 to 2.89 FAP73 per FAP100
B1: FAP73 (Mia2p), endogenous (natural protein, UniProt M1V4Y8 1-308, looked up)
chain: MDEEGSATARAKMMPQTLVLDHVSPATRLLEKRRQMFEVQEALEAQKQDFNRKEEVFKRREEALKLKDLELQESLIRFSKFLQENDSKRARAEKKANDEIKARIQKEKEIEQLTEVLEELKSEKERILEVLEKNMRYQHYLESVLEVADEYQEVADLLLRHATLSATNADLKDHQRKCSELAEKVRTELQIYVKQKTDEILNLNNQVAKLKTELEGYEAEAMVQEAKKDSSLQIASQRTLEYGQVVLSADNIFNRCRSKSSIGHPAESNPLHQLDVIGNFVSDLGSIIKQFKQEQAKRASLASRAEIE

Reference: paper PMC3628515 (The Journal of Cell Biology, 2013)
